Measured values published in article PMC3967872 (DNA repair, 2014).

T1: His-tagged full-length S. pombe Apn2 with Asn at position 254 (His-Apn2^N254) (S. pombe, UniProt P87175 1-523)
T1 sequence (looked up): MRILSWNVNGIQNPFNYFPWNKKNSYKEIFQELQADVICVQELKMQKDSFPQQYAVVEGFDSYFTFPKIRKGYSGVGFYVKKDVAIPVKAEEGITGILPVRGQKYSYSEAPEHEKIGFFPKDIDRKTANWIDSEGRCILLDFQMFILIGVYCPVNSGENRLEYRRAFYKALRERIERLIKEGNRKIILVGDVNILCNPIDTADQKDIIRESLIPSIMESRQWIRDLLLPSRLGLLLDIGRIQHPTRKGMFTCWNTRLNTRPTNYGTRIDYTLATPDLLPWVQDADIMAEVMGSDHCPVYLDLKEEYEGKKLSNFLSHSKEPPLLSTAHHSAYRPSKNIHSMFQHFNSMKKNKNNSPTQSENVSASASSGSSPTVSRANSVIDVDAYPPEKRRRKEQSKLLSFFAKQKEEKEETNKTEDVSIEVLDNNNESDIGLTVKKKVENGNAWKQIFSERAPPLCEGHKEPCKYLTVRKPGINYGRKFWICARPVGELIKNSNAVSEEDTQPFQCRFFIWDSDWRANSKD

T2: His-tagged full-length SpApn2^N254/S295, catalytically inactive mutant (His-Apn2^S295) (S. pombe, UniProt P87175 1-523, H295S)
T2 sequence (looked up): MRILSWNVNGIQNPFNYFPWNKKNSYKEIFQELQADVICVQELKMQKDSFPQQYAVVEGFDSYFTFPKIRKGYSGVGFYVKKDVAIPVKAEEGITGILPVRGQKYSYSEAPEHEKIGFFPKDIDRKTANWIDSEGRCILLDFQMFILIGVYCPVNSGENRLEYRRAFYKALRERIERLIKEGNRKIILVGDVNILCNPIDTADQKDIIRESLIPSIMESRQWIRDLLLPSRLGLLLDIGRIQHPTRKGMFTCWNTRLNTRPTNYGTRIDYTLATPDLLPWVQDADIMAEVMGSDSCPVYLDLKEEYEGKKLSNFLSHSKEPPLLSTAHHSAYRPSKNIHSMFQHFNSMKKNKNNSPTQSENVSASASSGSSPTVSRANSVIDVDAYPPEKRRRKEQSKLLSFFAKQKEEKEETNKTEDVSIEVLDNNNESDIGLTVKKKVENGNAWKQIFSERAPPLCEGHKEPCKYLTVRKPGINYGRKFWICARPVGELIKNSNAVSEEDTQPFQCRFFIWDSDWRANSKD

B1: GST fusion of S. pombe Myh1(245-461) (domain or fragment, UniProt Q10159 245-461, looked up)
chain: YQEQNVIRDGNTIKYDIEDVPCNICITDIPSKEDLQNWVVARYPVHPAKTKQREERALVVIFQKTDPSTKEKFFLIRKRPSAGLLAGLWDFPTIEFGQESWPKDMDAEFQKSIAQWISNDSRSLIKKYQSRGRYLHIFSHIRKTSHVFYAIASPDIVTNEDFFWISQSDLEHVGMCELGLKNYRAALEIKKRKVTSLSNFKEPKLTSARRIVTKAEC
B2: GST fusion of intact wild-type S. pombe Myh1 (GST-Myh1) (enzyme, UniProt Q10159 1-461, looked up)
chain: MSDSNHSLDLHSYTQLEVERFRESLIQFYDKTKRILPWRKKECIPPSEDSPLEDWEQPVQRLYEVLVSEIMLQQTRVETVKRYYTKWMETLPTLKSCAEAEYNTQVMPLWSGMGFYTRCKRLHQACQHLAKLHPSEIPRTGDEWAKGIPGVGPYTAGAVLSIAWKQPTGIVDGNVIRVLSRALAIHSDCSKGKANALIWKLANELVDPVRPGDFNQALMELGAITCTPQSPRCSVCPISEICKAYQEQNVIRDGNTIKYDIEDVPCNICITDIPSKEDLQNWVVARYPVHPAKTKQREERALVVIFQKTDPSTKEKFFLIRKRPSAGLLAGLWDFPTIEFGQESWPKDMDAEFQKSIAQWISNDSRSLIKKYQSRGRYLHIFSHIRKTSHVFYAIASPDIVTNEDFFWISQSDLEHVGMCELGLKNYRAALEIKKRKVTSLSNFKEPKLTSARRIVTKAEC

Key:
Experiment in all cases: pull-down
[1] = target: B1
[2] = target: T1, His-tagged full-length S. pombe Apn2 …
[3] = target: T2, His-tagged full-length …
[4] = target: B2

Binder	binding result [2]	also measured
His-tagged full-length S. pombe Apn2 with Ser at position 254 (His-Apn2^S254) (enzyme, UniProt P87175 1-523, looked up) MRILSWNVNGIQNPFNYFPWNKKNSYKEIFQELQADVICVQELKMQKDSFPQQYAVVEGFDSYFTFPKIRKGYSGVGFYVKKDVAIPVKAEEGITGILPVRGQKYSYSEAPEHEKIGFFPKDIDRKTANWIDSEGRCILLDFQMFILIGVYCPVNSGENRLEYRRAFYKALRERIERLIKEGNRKIILVGDVNILCNPIDTADQKDIIRESLIPSIMESRQWIRDLLLPSRLGLLLDIGRIQHPTRKGMFTCWSTRLNTRPTNYGTRIDYTLATPDLLPWVQDADIMAEVMGSDHCPVYLDLKEEYEGKKLSNFLSHSKEPPLLSTAHHSAYRPSKNIHSMFQHFNSMKKNKNNSPTQSENVSASASSGSSPTVSRANSVIDVDAYPPEKRRRKEQSKLLSFFAKQKEEKEETNKTEDVSIEVLDNNNESDIGLTVKKKVENGNAWKQIFSERAPPLCEGHKEPCKYLTVRKPGINYGRKFWICARPVGELIKNSNAVSEEDTQPFQCRFFIWDSDWRANSKD		fold weaker interaction than intact Myh1 [1]: 2 fold
B1	binds	
B2	binds	binding result [3]: binds
GST fusion of S. pombe Myh1(I261A) (enzyme, UniProt Q10159 1-461, looked up) MSDSNHSLDLHSYTQLEVERFRESLIQFYDKTKRILPWRKKECIPPSEDSPLEDWEQPVQRLYEVLVSEIMLQQTRVETVKRYYTKWMETLPTLKSCAEAEYNTQVMPLWSGMGFYTRCKRLHQACQHLAKLHPSEIPRTGDEWAKGIPGVGPYTAGAVLSIAWKQPTGIVDGNVIRVLSRALAIHSDCSKGKANALIWKLANELVDPVRPGDFNQALMELGAITCTPQSPRCSVCPISEICKAYQEQNVIRDGNTIKYDAEDVPCNICITDIPSKEDLQNWVVARYPVHPAKTKQREERALVVIFQKTDPSTKEKFFLIRKRPSAGLLAGLWDFPTIEFGQESWPKDMDAEFQKSIAQWISNDSRSLIKKYQSRGRYLHIFSHIRKTSHVFYAIASPDIVTNEDFFWISQSDLEHVGMCELGLKNYRAALEIKKRKVTSLSNFKEPKLTSARRIVTKAEC	binds	
His- and maltose binding protein (MBP)-tagged SpApn2 residues 1-303 (His-MBP-Apn2^1-303) (domain or fragment, S. pombe, UniProt P87175 1-303, looked up) MRILSWNVNGIQNPFNYFPWNKKNSYKEIFQELQADVICVQELKMQKDSFPQQYAVVEGFDSYFTFPKIRKGYSGVGFYVKKDVAIPVKAEEGITGILPVRGQKYSYSEAPEHEKIGFFPKDIDRKTANWIDSEGRCILLDFQMFILIGVYCPVNSGENRLEYRRAFYKALRERIERLIKEGNRKIILVGDVNILCNPIDTADQKDIIRESLIPSIMESRQWIRDLLLPSRLGLLLDIGRIQHPTRKGMFTCWSTRLNTRPTNYGTRIDYTLATPDLLPWVQDADIMAEVMGSDHCPVYLDLK		binding result [4]: binds
